± gives the uncertainty stated by the source.
B1: Homeobox protein SIX3, residues 212 to 262; numbered along this chain, O95343 (parent)
chain: CFKERTRSLLREWYLQDPYPNPSKKRELAQATGLTPTQVGNWFKNRRQRDR

Variants of: B1
Assay: abundance fitness (aPCA) (normalised: wild type 0, dead -1); higher = more abundant; growth selection in yeast, the domain comes from the species named
Details: Homo sapiens

Which abundance fitness does the source give for CFKERTRSLLREWYLQDPYPNPSKKRELAQATGLTPTQVGNWDKNRRQRDR [F43D] here?
Its abundance fitness is -0.816 ± 0.35.

For CFKERTRSLLREWYLQDPYPNPSKKRELAQATGLTPTQVGNWEKNRRQRDR [F43E], which abundance fitness is on record?
Its abundance fitness is -0.883 ± 0.16.

Which abundance fitness does the source give for CFKERTRSLLREWYLQDPYPNPSKKRELAQATGLTPTQVGNWGKNRRQRDR [F43G] here?
Its abundance fitness is -0.956 ± 0.11.

For CFKERTRSLLREWYLQDPYPNPSKKRELAQATGLTPTQVGNWHKNRRQRDR [F43H], which abundance fitness is on record?
Its abundance fitness is -0.82 ± 0.28.

For CFKERTRSLLREWYLQDPYPNPSKKRELAQATGLTPTQVGNWIKNRRQRDR [F43I], which abundance fitness is on record?
The abundance fitness was -0.679 ± 0.47.

For CFKERTRSLLREWYLQDPYPNPSKKRELAQATGLTPTQVGNWKKNRRQRDR [F43K], which abundance fitness is on record?
Its abundance fitness is -0.92 ± 0.16.

With CFKERTRSLLREWYLQDPYPNPSKKRELAQATGLTPTQVGNWLKNRRQRDR [F43L] as the variant, how does the abundance fitness read?
The abundance fitness was -0.97 ± 0.15.

With CFKERTRSLLREWYLQDPYPNPSKKRELAQATGLTPTQVGNWMKNRRQRDR [F43M] as the variant, how does the abundance fitness read?
Its abundance fitness is -0.782 ± 0.18.

For CFKERTRSLLREWYLQDPYPNPSKKRELAQATGLTPTQVGNWNKNRRQRDR [F43N], which abundance fitness is on record?
The abundance fitness was -0.621 ± 0.24.

For CFKERTRSLLREWYLQDPYPNPSKKRELAQATGLTPTQVGNWPKNRRQRDR [F43P], which abundance fitness is on record?
Its abundance fitness is -0.941 ± 0.14.

For CFKERTRSLLREWYLQDPYPNPSKKRELAQATGLTPTQVGNWQKNRRQRDR [F43Q], which abundance fitness is on record?
Its abundance fitness is -0.861 ± 0.089.

Which abundance fitness does the source give for CFKERTRSLLREWYLQDPYPNPSKKRELAQATGLTPTQVGNWRKNRRQRDR [F43R] here?
Its abundance fitness is -0.774 ± 0.05.

For CFKERTRSLLREWYLQDPYPNPSKKRELAQATGLTPTQVGNWSKNRRQRDR [F43S], which abundance fitness is on record?
Its abundance fitness is -0.837 ± 0.073.

With CFKERTRSLLREWYLQDPYPNPSKKRELAQATGLTPTQVGNWTKNRRQRDR [F43T] as the variant, how does the abundance fitness read?
Its abundance fitness is -0.951 ± 0.14.

With CFKERTRSLLREWYLQDPYPNPSKKRELAQATGLTPTQVGNWVKNRRQRDR [F43V] as the variant, how does the abundance fitness read?
Its abundance fitness is -1 ± 0.092.

With CFKERTRSLLREWYLQDPYPNPSKKRELAQATGLTPTQVGNWWKNRRQRDR [F43W] as the variant, how does the abundance fitness read?
The abundance fitness was -0.915 ± 0.055.

Which abundance fitness does the source give for CFKERTRSLLREWYLQDPYPNPSKKRELAQATGLTPTQVGNWYKNRRQRDR [F43Y] here?
Its abundance fitness is -0.689 ± 0.086.

With CFKERTRSLLREWYLQDPYPNPSKKRELAQATGLTPTQVGNWFANRRQRDR [K44A] as the variant, how does the abundance fitness read?
The abundance fitness was -0.286 ± 0.044.

With CFKERTRSLLREWYLQDPYPNPSKKRELAQATGLTPTQVGNWFCNRRQRDR [K44C] as the variant, how does the abundance fitness read?
The abundance fitness was -0.807 ± 0.24.

With CFKERTRSLLREWYLQDPYPNPSKKRELAQATGLTPTQVGNWFDNRRQRDR [K44D] as the variant, how does the abundance fitness read?
Its abundance fitness is -0.356 ± 0.054.

With CFKERTRSLLREWYLQDPYPNPSKKRELAQATGLTPTQVGNWFENRRQRDR [K44E] as the variant, how does the abundance fitness read?
Its abundance fitness is -0.086 ± 0.079.

Which abundance fitness does the source give for CFKERTRSLLREWYLQDPYPNPSKKRELAQATGLTPTQVGNWFFNRRQRDR [K44F] here?
Its abundance fitness is -0.452 ± 0.1.

Which abundance fitness does the source give for CFKERTRSLLREWYLQDPYPNPSKKRELAQATGLTPTQVGNWFGNRRQRDR [K44G] here?
The abundance fitness was -0.72 ± 0.1.

Which abundance fitness does the source give for CFKERTRSLLREWYLQDPYPNPSKKRELAQATGLTPTQVGNWFHNRRQRDR [K44H] here?
Its abundance fitness is -0.354 ± 0.071.

With CFKERTRSLLREWYLQDPYPNPSKKRELAQATGLTPTQVGNWFINRRQRDR [K44I] as the variant, how does the abundance fitness read?
Its abundance fitness is -0.629 ± 0.16.

Which abundance fitness does the source give for CFKERTRSLLREWYLQDPYPNPSKKRELAQATGLTPTQVGNWFLNRRQRDR [K44L] here?
The abundance fitness was -0.407 ± 0.074.

For CFKERTRSLLREWYLQDPYPNPSKKRELAQATGLTPTQVGNWFMNRRQRDR [K44M], which abundance fitness is on record?
Its abundance fitness is -0.505 ± 0.2.

For CFKERTRSLLREWYLQDPYPNPSKKRELAQATGLTPTQVGNWFNNRRQRDR [K44N], which abundance fitness is on record?
Its abundance fitness is 0.017 ± 0.11.

For CFKERTRSLLREWYLQDPYPNPSKKRELAQATGLTPTQVGNWFQNRRQRDR [K44Q], which abundance fitness is on record?
The abundance fitness was 0.007 ± 0.095.

For CFKERTRSLLREWYLQDPYPNPSKKRELAQATGLTPTQVGNWFRNRRQRDR [K44R], which abundance fitness is on record?
Its abundance fitness is -0.115 ± 0.044.

Which abundance fitness does the source give for CFKERTRSLLREWYLQDPYPNPSKKRELAQATGLTPTQVGNWFSNRRQRDR [K44S] here?
Its abundance fitness is -0.192 ± 0.065.

Which abundance fitness does the source give for CFKERTRSLLREWYLQDPYPNPSKKRELAQATGLTPTQVGNWFTNRRQRDR [K44T] here?
Its abundance fitness is -0.376 ± 0.15.

For CFKERTRSLLREWYLQDPYPNPSKKRELAQATGLTPTQVGNWFVNRRQRDR [K44V], which abundance fitness is on record?
The abundance fitness was -0.48 ± 0.048.

For CFKERTRSLLREWYLQDPYPNPSKKRELAQATGLTPTQVGNWFWNRRQRDR [K44W], which abundance fitness is on record?
The abundance fitness was -0.623 ± 0.21.

Which abundance fitness does the source give for CFKERTRSLLREWYLQDPYPNPSKKRELAQATGLTPTQVGNWFYNRRQRDR [K44Y] here?
Its abundance fitness is -0.496 ± 0.17.

For CFKERTRSLLREWYLQDPYPNPSKKRELAQATGLTPTQVGNWFKARRQRDR [N45A], which abundance fitness is on record?
Its abundance fitness is -0.452 ± 0.1.

With CFKERTRSLLREWYLQDPYPNPSKKRELAQATGLTPTQVGNWFKCRRQRDR [N45C] as the variant, how does the abundance fitness read?
The abundance fitness was -0.396 ± 0.069.

With CFKERTRSLLREWYLQDPYPNPSKKRELAQATGLTPTQVGNWFKERRQRDR [N45E] as the variant, how does the abundance fitness read?
The abundance fitness was -0.192 ± 0.098.

For CFKERTRSLLREWYLQDPYPNPSKKRELAQATGLTPTQVGNWFKGRRQRDR [N45G], which abundance fitness is on record?
Its abundance fitness is -0.58 ± 0.073.

For CFKERTRSLLREWYLQDPYPNPSKKRELAQATGLTPTQVGNWFKHRRQRDR [N45H], which abundance fitness is on record?
The abundance fitness was -0.209 ± 0.14.

With CFKERTRSLLREWYLQDPYPNPSKKRELAQATGLTPTQVGNWFKIRRQRDR [N45I] as the variant, how does the abundance fitness read?
Its abundance fitness is -0.429 ± 0.047.

For CFKERTRSLLREWYLQDPYPNPSKKRELAQATGLTPTQVGNWFKKRRQRDR [N45K], which abundance fitness is on record?
The abundance fitness was -0.368 ± 0.12.

Which abundance fitness does the source give for CFKERTRSLLREWYLQDPYPNPSKKRELAQATGLTPTQVGNWFKLRRQRDR [N45L] here?
Its abundance fitness is -0.28 ± 0.06.

For CFKERTRSLLREWYLQDPYPNPSKKRELAQATGLTPTQVGNWFKMRRQRDR [N45M], which abundance fitness is on record?
Its abundance fitness is -0.355 ± 0.1.

With CFKERTRSLLREWYLQDPYPNPSKKRELAQATGLTPTQVGNWFKPRRQRDR [N45P] as the variant, how does the abundance fitness read?
Its abundance fitness is -0.967 ± 0.23.

For CFKERTRSLLREWYLQDPYPNPSKKRELAQATGLTPTQVGNWFKQRRQRDR [N45Q], which abundance fitness is on record?
The abundance fitness was -0.263 ± 0.052.

Which abundance fitness does the source give for CFKERTRSLLREWYLQDPYPNPSKKRELAQATGLTPTQVGNWFKRRRQRDR [N45R] here?
The abundance fitness was -0.063 ± 0.05.

Which abundance fitness does the source give for CFKERTRSLLREWYLQDPYPNPSKKRELAQATGLTPTQVGNWFKSRRQRDR [N45S] here?
Its abundance fitness is -0.283 ± 0.045.

With CFKERTRSLLREWYLQDPYPNPSKKRELAQATGLTPTQVGNWFKTRRQRDR [N45T] as the variant, how does the abundance fitness read?
The abundance fitness was -0.255 ± 0.074.

Which abundance fitness does the source give for CFKERTRSLLREWYLQDPYPNPSKKRELAQATGLTPTQVGNWFKVRRQRDR [N45V] here?
Its abundance fitness is -0.493 ± 0.1.

With CFKERTRSLLREWYLQDPYPNPSKKRELAQATGLTPTQVGNWFKWRRQRDR [N45W] as the variant, how does the abundance fitness read?
The abundance fitness was -0.655 ± 0.1.
